Where no end group is shown, it is not given here.
B1: …, cyclic mimotope (peptide)
peptide: GGSLRYNPADY
modifications: also: cyclic peptide, mode of cyclisation not given here
B2: …, cyclic mimotope (peptide)
peptide: RLRYNPADY
modifications: also: cyclic peptide, ring type and places not given here
B3: …, cyclic mimotope (peptide)
peptide: SLRVNPADY
modifications: also: cyclic peptide, mode of cyclisation not given here
B4: …, cyclic mimotope (peptide)
peptide: RLYWNPADY
modifications: also: cyclic peptide, ring type and places not given here
B5: …, cyclic mimotope (peptide)
peptide: DVRLRGNPADY
modifications: also: cyclic peptide, mode of cyclisation not given here
B6: …, cyclic mimotope (peptide)
peptide: GSLRWNPADYR
modifications: also: cyclic peptide, mode of cyclisation not given here
B7: …, cyclic mimotope (peptide)
peptide: DVRLRFNPADY
modifications: also: cyclic peptide, mode of cyclisation not given here
B8: RGNPADY, cyclic mimotope (peptide)
peptide: RGNPADY
modifications: also: cyclic peptide, ring type and places not given here
B9: …, cyclic mimotope (peptide)
peptide: RPRWNPADY
modifications: also: cyclic peptide, ring type and places not given here
B10: …, cyclic mimotope (peptide)
peptide: GGSLRVNPADY
modifications: also: cyclic peptide, mode of cyclisation not given here
B11: NPADYGH, cyclic mimotope (peptide)
peptide: NPADYGH
modifications: also: cyclic peptide, mode of cyclisation not given here
B12: WNPADYR, cyclic mimotope (peptide)
peptide: WNPADYR
modifications: also: cyclic peptide, mode of cyclisation not given here
B13: …, cyclic mimotope (peptide)
peptide: GNPADYGGI
modifications: also: cyclic peptide, mode of cyclisation not given here
B14: RRNPADY, cyclic mimotope (peptide)
peptide: RRNPADY
modifications: also: cyclic peptide, ring type and places not given here
B15: RVNPADY, cyclic mimotope (peptide)
peptide: RVNPADY
modifications: also: cyclic peptide, ring type and places not given here
B16: …, cyclic mimotope (peptide)
peptide: RPNPADYGG
modifications: also: cyclic peptide, ring type and places not given here
B17: …, cyclic mimotope (peptide)
peptide: GSLRWNPADYP
modifications: also: cyclic peptide, mode of cyclisation not given here
B18: NPADYGD, cyclic mimotope (peptide)
peptide: NPADYGD
modifications: also: cyclic peptide, mode of cyclisation not given here
B19: …, cyclic mimotope (peptide)
peptide: SLRLNPADY
modifications: also: cyclic peptide, mode of cyclisation not given here
B20: …, cyclic mimotope (peptide)
peptide: GGGSLRRNPAD
modifications: also: cyclic peptide, mode of cyclisation not given here
B21: …, cyclic mimotope (peptide)
peptide: SLRFNPADY
modifications: also: cyclic peptide, ring type and places not given here
B22: …, cyclic mimotope (peptide)
peptide: SLRYNPADY
modifications: also: cyclic peptide, mode of cyclisation not given here
B23: NPADYGY, cyclic mimotope (peptide)
peptide: NPADYGY
modifications: also: cyclic peptide, ring type and places not given here
B24: …, cyclic mimotope (peptide)
peptide: VRLRRNPAD
modifications: also: cyclic peptide, mode of cyclisation not given here
B25: RYNPADY, cyclic mimotope (peptide)
peptide: RYNPADY
modifications: also: cyclic peptide, ring type and places not given here
B26: …, cyclic mimotope (peptide)
peptide: RGNPADYGG
modifications: also: cyclic peptide, ring type and places not given here
B27: …, cyclic mimotope (peptide)
peptide: GGSLRINPADY
modifications: also: cyclic peptide, mode of cyclisation not given here
B28: …, cyclic mimotope (peptide)
peptide: RLRFNPADY
modifications: also: cyclic peptide, ring type and places not given here
B29: …, cyclic mimotope (peptide)
peptide: SLRGNPADY
modifications: also: cyclic peptide, ring type and places not given here
B30: NPADYGR, cyclic mimotope (peptide)
peptide: NPADYGR
modifications: also: cyclic peptide, ring type and places not given here
B31: …, cyclic mimotope (peptide)
peptide: VRLRVNPADYG
modifications: also: cyclic peptide, mode of cyclisation not given here
B32: …, cyclic mimotope (peptide)
peptide: LRWNPADYP
modifications: also: cyclic peptide, mode of cyclisation not given here
B33: …, cyclic mimotope (peptide)
peptide: ALRWNPADY
modifications: also: cyclic peptide, mode of cyclization not given here
B34: RPNPADY, cyclic mimotope (peptide)
peptide: RPNPADY
modifications: also: cyclic peptide, ring type and places not given here
B35: NPADYRG, cyclic mimotope (peptide)
peptide: NPADYRG
modifications: also: cyclic peptide, ring type and places not given here
B36: RANPADY, cyclic mimotope (peptide)
peptide: RANPADY
modifications: also: cyclic peptide, ring type and places not given here
B37: …, cyclic mimotope (peptide)
peptide: RLRINPADY
modifications: also: cyclic peptide, ring type and places not given here
B38: RTNPADY, cyclic mimotope (peptide)
peptide: RTNPADY
modifications: also: cyclic peptide, ring type and places not given here
B39: …, cyclic mimotope (peptide)
peptide: LRINPADYG
modifications: also: cyclic peptide, mode of cyclisation not given here
B40: …, cyclic mimotope (peptide)
peptide: LRRNPADYG
modifications: also: cyclic peptide, mode of cyclisation not given here
B41: WNPADYP, cyclic mimotope (peptide)
peptide: WNPADYP
modifications: also: cyclic peptide, mode of cyclisation not given here
B42: …, cyclic mimotope (peptide)
peptide: GGSLRGNPADY
modifications: also: cyclic peptide, mode of cyclisation not given here
B43: VNPADYG, cyclic mimotope (peptide)
peptide: VNPADYG
modifications: also: cyclic peptide, mode of cyclisation not given here
B44: …, cyclic mimotope (peptide)
peptide: RINPADYGG
modifications: also: cyclic peptide, ring type and places not given here
B45: …, cyclic mimotope (peptide)
peptide: GSLRINPADYG
modifications: also: cyclic peptide, mode of cyclisation not given here
B46: …, cyclic mimotope (peptide)
peptide: GGSLRFNPADY
modifications: also: cyclic peptide, mode of cyclisation not given here
B47: …, cyclic mimotope (peptide)
peptide: DVRLRPNPADY
modifications: also: cyclic peptide, mode of cyclisation not given here

These binders were tested against monoclonal antibody mAB 198 (assay: peptide microarray, fluorescence, cyclic peptide).

| relative signal [%] | Binder |
| --- | --- |
| 11.5 | B1 |
| 24.5 | B2 |
| 26.5 | B3 |
| 13.7 | B4 |
| 25 | B5 |
| 16.2 | B6 |
| 27.7 | B7 |
| 23.8 | B8 |
| 12.4 | B9 |
| 22.5 | B10 |
| 15.8 | B11 |
| 24.9 | B12 |
| 13.7 | B13 |
| 23.5 | B14 |
| 18.7 | B15 |
| 11.9 | B16 |
| 12.4 | B17 |
| 12.6 | B18 |
| 21.8 | B19 |
| 12.5 | B20 |
| 13.6 | B21 |
| 12.2 | B22 |
| 11.8 | B23 |
| 14.7 | B24 |

| relative signal [%] | Binder |
| --- | --- |
| 20.2 | B25 |
| 22.2 | B26 |
| 25.4 | B27 |
| 21.3 | B28 |
| 15.4 | B29 |
| 19.5 | B30 |
| 13.4 | B31 |
| 13.1 | B32 |
| 11.5 | B33 |
| 15.6 | B34 |
| 27.4 | B35 |
| 12.2 | B36 |
| 25.5 | B37 |
| 14.6 | B38 |
| 22.8 | B39 |
| 23.4 | B40 |
| 21.1 | B41 |
| 19.6 | B42 |
| 12.5 | B43 |
| 23.1 | B44 |
| 12.1 | B45 |
| 14.5 | B46 |
| 21.3 | B47 |
